Assays:
Test in all cases: cell_activity
[1] = system: zebrafish nd4 reverse mitoTALE-nickase-1 (synthetic (Xanthomonas TALE-FokI)?); conditions: nd4 nickase-1 + nickase-2, zebrafish embryos
[2] = system: zebrafish nd4 reverse mitoTALE-nickase-2 (synthetic (Xanthomonas TALE-FokI)?); conditions: nd4 nickase-1 + nickase-2, zebrafish embryos
[3] = system: zebrafish nd5 forward mitoTALE-nickase (synthetic (Xanthomonas TALE-FokI)?); conditions: nd5+atp8 nickases, >90% with nd4 nuclease
[4] = system: zebrafish nd4 reverse mitoTALE nuclease (synthetic (Xanthomonas TALE-FokI)?); conditions: co-injected with nd5 and atp8 nickases; heteroplasmic shift to about 2-10%
[5] = system: zebrafish nd4 forward mitoTALE-nickase-2 (synthetic (Xanthomonas TALE-FokI)?); conditions: nd4 nickase-1 + nickase-2, zebrafish embryos
[6] = system: zebrafish nd5 reverse mitoTALE-nickase (synthetic (Xanthomonas TALE-FokI)?); conditions: nd5+atp8 nickases, >90% with nd4 nuclease
[7] = system: zebrafish atp8 reverse mitoTALE-nickase (synthetic (Xanthomonas TALE-FokI)?); conditions: nd5+atp8 nickases, >90% with nd4 nuclease
[8] = system: zebrafish nd4 forward mitoTALE nuclease (synthetic (Xanthomonas TALE-FokI)?); conditions: co-injected with nd5 and atp8 nickases; heteroplasmic shift to about 2-10%
[9] = system: zebrafish atp8 forward mitoTALE-nickase (synthetic (Xanthomonas TALE-FokI)?); conditions: nd5+atp8 nickases, >90% with nd4 nuclease
[10] = system: zebrafish nd4 forward mitoTALE-nickase-1 (synthetic (Xanthomonas TALE-FokI)?); conditions: nd4 nickase-1 + nickase-2, zebrafish embryos

AAGTTCTGGTTTTAA (double strand) [zebrafish nd4 nickase-1 reverse half-site]
activity (% embryos with deletion) [1]: 50

ACGAGTTAGAAGCAT (double strand) [zebrafish nd4 nickase-2 reverse half-site]
activity (% embryos with deletion) [2]: 50

AGGGCTAATGATAGT (double strand) [zebrafish nd5 forward half-site]
activity (% embryos with deletion) [3]: 30

CGGGTAATAATGATT (double strand) [zebrafish nd4 nuclease reverse half-site]
activity (% embryos with deletion) [4]: > 90

GACTAAAATGAACCT (double strand) [zebrafish nd4 nickase-2 forward half-site]
activity (% embryos with deletion) [5]: 50

GCTAGATGTGGTTGG (double strand) [zebrafish nd5 reverse half-site]
activity (% embryos with deletion) [6]: 30

TAGGTTGAATGTGAT (double strand) [zebrafish atp8 reverse half-site]
activity (% embryos with deletion) [7]: 30

TATATTCGAAGCTAC (double strand) [zebrafish nd4 nuclease forward half-site]
activity (% embryos with deletion) [8]: > 90

TCCTTACTATTATTC (double strand) [zebrafish atp8 forward half-site]
activity (% embryos with deletion) [9]: 30

TTACACCTAATTCCT (double strand) [zebrafish nd4 nickase-1 forward half-site]
activity (% embryos with deletion) [10]: 50

From patent publication US20190024073
